Experimental data published in US20250026850A1 (TRISHULA THERAPEUTICS, published 2025).
Where a chain is given by its changes, count along the chain named.

T1: rhCD39-ECD-His (R&D Systems) (human, UniProt P49961 38-478)
T1 construct: Bought protein; that entry runs on through the C-terminal transmembrane and cytoplasmic residues; also called recombinant human CD39 extracellular domain; soluble recombinant human CD39 (ENTDP1) ECD; not shown: His tag
T1 sequence: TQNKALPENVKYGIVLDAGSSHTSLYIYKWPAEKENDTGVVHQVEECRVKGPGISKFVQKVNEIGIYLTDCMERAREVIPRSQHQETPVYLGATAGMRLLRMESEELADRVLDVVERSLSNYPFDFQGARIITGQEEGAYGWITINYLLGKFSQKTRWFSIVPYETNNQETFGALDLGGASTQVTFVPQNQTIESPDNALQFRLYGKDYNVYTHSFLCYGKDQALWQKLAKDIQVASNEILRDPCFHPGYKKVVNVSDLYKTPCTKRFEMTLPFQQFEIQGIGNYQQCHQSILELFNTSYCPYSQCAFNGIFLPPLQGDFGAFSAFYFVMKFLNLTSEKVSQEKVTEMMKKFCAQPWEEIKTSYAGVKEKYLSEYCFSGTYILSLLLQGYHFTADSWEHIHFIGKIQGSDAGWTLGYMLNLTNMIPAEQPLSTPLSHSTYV

T2: human CD39 on cells (human, UniProt P49961 1-510)
T2 construct: One molecule for all cells that carry human CD39; the cell is named under assay; also called hCD39; cellular CD39
T2 sequence: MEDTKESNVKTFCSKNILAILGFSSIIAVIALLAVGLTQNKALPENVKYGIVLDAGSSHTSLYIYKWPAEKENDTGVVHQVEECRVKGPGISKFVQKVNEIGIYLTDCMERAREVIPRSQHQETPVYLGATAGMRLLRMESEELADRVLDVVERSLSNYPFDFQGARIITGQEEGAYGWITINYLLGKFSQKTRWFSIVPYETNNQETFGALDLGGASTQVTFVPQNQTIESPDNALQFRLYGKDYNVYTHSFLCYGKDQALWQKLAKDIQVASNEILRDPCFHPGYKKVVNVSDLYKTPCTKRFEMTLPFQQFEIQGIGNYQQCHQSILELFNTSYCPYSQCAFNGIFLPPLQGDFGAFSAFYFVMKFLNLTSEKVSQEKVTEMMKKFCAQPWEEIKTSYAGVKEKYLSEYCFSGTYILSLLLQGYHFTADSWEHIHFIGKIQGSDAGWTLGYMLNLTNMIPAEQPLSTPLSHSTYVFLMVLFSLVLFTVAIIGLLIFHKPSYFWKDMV

T3: cynomolgus macaque (Macaca fascicularis) CD39 on cells (cynomolgus macaque (Macaca fascicularis), UniProt P49961 7-510 (human entry))
T3 construct: CHO cells engineered to express cyno CD39, or primary cyno B cells and monocytes; also called cyno CD39; cCD39
T3 chain: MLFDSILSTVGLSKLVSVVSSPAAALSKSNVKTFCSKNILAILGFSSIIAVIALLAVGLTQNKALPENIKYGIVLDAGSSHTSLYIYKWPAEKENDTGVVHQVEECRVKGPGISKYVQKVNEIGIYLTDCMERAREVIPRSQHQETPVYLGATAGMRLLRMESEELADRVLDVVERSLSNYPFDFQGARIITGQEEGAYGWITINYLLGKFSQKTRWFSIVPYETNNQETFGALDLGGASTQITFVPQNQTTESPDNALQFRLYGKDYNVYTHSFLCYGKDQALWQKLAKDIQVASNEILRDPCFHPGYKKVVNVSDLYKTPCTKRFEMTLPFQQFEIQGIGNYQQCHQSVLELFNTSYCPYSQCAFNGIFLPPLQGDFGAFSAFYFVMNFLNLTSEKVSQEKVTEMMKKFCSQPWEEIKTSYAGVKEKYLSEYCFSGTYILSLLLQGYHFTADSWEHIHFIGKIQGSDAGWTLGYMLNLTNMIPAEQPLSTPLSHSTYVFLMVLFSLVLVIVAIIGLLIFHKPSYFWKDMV

B1: 27587 (antibody, V domains shown)
VH: QVQLVQSGAEVKKPGSSVKVSCKASGGTFSSYAISWVRQAPGQGLEWMGSIIPIFGTANYAQKFQGRVTITADESTSTAYMELSSLRSEDTAVYYCARESGGYRDHKLDVWGQGTMVTVSS
VL: EIVLTQSPATLSLSPGERATLSCRASQSVSSYLAWYQQKPGQAPRLLIYDASKRATGIPARFSGSGSGTDFTLTISSLEPEDFAVYYCQQDVLWPLTFGGGTKVEIKR
B2: 27596 (antibody, V domains shown)
VH: B1 VH with S50G, E99D, S100P, G101L, Y103I, D105K, K107W, L108F, V110P, M116L
VL: B1 VL with L4M, K53N, D91H, V92T, L93V, L96I
B3: 27597 (antibody, V domains shown)
VH: QVQLVQSGAEVKKPGSSVKVSCKASGGTFSSYAISWVRQAPGQGLEWMGSIIPIFGTANYAQKFQGRVTITADESTSTAYMELSSLRSEDTAVYYCAREGRGYDSSRYYKFWFDPWGQGTLVTVSS
VL: B1 VL with K53N, D91F, L96R
B4: 27571 (antibody, V domains shown)
VH: B1 VH with V20A, Q65R, A79T, K107R
VL: EIVMTQSPATLSVSPGERATLSCRASQSVGSNLAWYQQKPGQAPRLLIYGASTRATGIPARFSGSGSGTEFTLTISSLQSEDFAVYYCQQYLIWPLTFGGGTKVEIK
B5: 27550 (antibody, V domains shown)
VH: EVQLVESGGGLVKPGGSLRLSCAASGFTFSSYSMNWVRQAPGKGLEWVSSISSSSSYIYYADSVKGRFTISRDNAKNSLYLQMNSLRAEDTAVYYCARERRGSLALGMDVWGQGTLVTVSS
VL: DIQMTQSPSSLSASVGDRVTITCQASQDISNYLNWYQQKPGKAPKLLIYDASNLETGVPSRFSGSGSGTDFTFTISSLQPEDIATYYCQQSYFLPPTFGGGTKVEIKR
B6: 27588 (antibody, V domains shown)
VH: QVQLVQSGAEVKKPGSSVKVSCKASGGTFSNYAISWVRQAPGQGLEWMGGIIPIFGTANYAQKFQGRVTITADESTSTAYMELSSLRSEDTAVYYCARAKRGYDSYGGVYFDYWGQGTLVTVSS
VL: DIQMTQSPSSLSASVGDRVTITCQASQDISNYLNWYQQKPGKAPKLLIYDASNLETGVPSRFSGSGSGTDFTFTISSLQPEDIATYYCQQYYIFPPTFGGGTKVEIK
B7: 29871 (antibody, V domains shown)
VH: QVQLVQSGAEVKKPGASVKVSCKASGYTFQSYYMHWVRQAPGQGLEWMGKINPSGGSTWYAQKFQGRVTMTRDTSTSTVYMELSSLRSEDTAVYYCARGKREGGTEYLRHWGQGTLVTVSS
VL: EIVLTQSPGTLSLSPGERATLSCRASQSVSSSYLAWYQQKPGQAPRLLIYGASSRATGIPDRFSGSGSGTDFTLTISRLEPEDFAVYYCQQYHSYITFGGGTKVEIK
B8: 31421 (antibody, V domains shown)
VH: B7 VH with Q30F, H35Y, K50V, S54L, S57G, W59S
VL: B7 VL with R24K, Q27E, G51Y, S94R, Y95R
B9: 27590 (antibody, V domains shown)
VH: QVQLVQSGAEVKKPGSSVKVSCKASGGTFSNYAISWVRQAPGQGLEWMGGIIPIFGTANYAQKFQGRVTITADESTSTAYMELSSLRSEDTAVYYCARGPTVTATTSIGTHNWFDPWGQGTLVTVSS
VL: EIVLTQSPATLSLSPGERATLSCRASQSVSSYLAWYQQKPGQAPRLLIYDASNRATGIPARFSGSGSGTDFTLTISSLEPEDFAVYYCQQRNFYPPTFGGGTKVEIK
B10: 31896 (antibody, V domains shown)
VH: QVQLVQSGAEVKKPGSSVKVSCKASGGTFSKLAISWVRQAPGQGLEWMGGIGFGTANYAQKFQGRVTITADESASTAYMELSSLRSEDTAVYYCARGGAKYASTHGMDVWGQGTTVTVSS
VL: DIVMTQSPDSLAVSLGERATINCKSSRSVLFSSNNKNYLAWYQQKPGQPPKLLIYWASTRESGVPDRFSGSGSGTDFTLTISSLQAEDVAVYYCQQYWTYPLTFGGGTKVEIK
B11: 31915 (antibody, V domains shown)
VH: B10 VH with K31S, A33P, A74T, T104K, H105W
VL: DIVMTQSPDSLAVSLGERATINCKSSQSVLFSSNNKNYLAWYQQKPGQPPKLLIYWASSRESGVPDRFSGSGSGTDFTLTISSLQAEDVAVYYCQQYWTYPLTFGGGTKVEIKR
B12: 27577 (antibody, V domains shown)
VH: QVQLVQSGAEVKKPGSSVKVSCKASGGAFSSYAIGWVRQAPGQGLEWMGGIIPTFGTANYAQKFQGRVTITADESTSTAYMELSSLRSEDTAVYYCARDGGGYQHHYFDLWGRGTLVTVSS
VL: EIVMTQSPATLSVSPGERATLSCRASQSVGSNLAWYQQKPGQAPRLLIYGASTRATGIPARFSGSGSGTEFTLTISSLQSEDFAVYYCQQLTKWPLTFGGGTKVEIKR
B13: 27589 (antibody, V domains shown)
VH: QVQLVQSGAEVKKPGSSVKVSCKASGGTFSSYAISWVRQAPGQGLEWMGGIIPIFGTANYAQKFQGRVTITADESTSTAYMELSSLRSEDTAVYYCARDSGYHRHYSDYWGQGTLVTVSS
VL: DIQMTQSPSTLSASVGDRVTITCRASQSISSWLAWYQQKPGKAPKLLIYKASSLESGVPSRFSGSGSGTEFTLTISSLQPDDFATYYCQQYGLFPITFGGGTKVEIKR

What follows are binders tested against T1, rhCD39-ECD-His (R&D Systems) (assay: BLI (Octet), IgG on anti-human Fc sensor, rhCD39-ECD-His 10-300 nM, 1:1 fit).
Experimental: The kinetic data was globally fit with a simple 1:1 Langmuir binding model to yield on-rate (kon) and off-rate (koff) values. The equilibrium dissociation constants (KD) were calculated from the kon and koff values.
Binding kinetics were measured using the Octet Red96 system (ForteBio) at 25° C. in running buffer (1× Pall ForteBio Kinetics Buffer diluted into PBS or Tris pH 7.4). […] After a short baseline step in running buffer, the sensors were exposed to varying concentrations (10-300 nM) of rhCD39-ECD-His (R&D Systems) for the association step. Dissociation of the complex was monitored upon exposure of the sensors to running buffer once again. Data was processed using ForteBio Octet software with baseline subtraction, global fit and 1:1 binding model to obtain association and dissociation rates. KD was calculated from the ratio of kd to kₐ.
B1 gave a Kd of 33.7 nM, a koff of 0.00711 s⁻¹ and a kon of 211000 M⁻¹ s⁻¹. Work on B2 yielded a Kd of 31.1 nM, a koff of 0.0533 s⁻¹ and a kon of 1.72e+06 M⁻¹ s⁻¹. With B3 the Kd was 335 nM, the koff was 0.0914 s⁻¹ and the kon was 273000 M⁻¹ s⁻¹. In the case of B4, the Kd is reported as 16.4 nM, the koff is reported as 0.0105 s⁻¹ and the kon is reported as 639000 M⁻¹ s⁻¹. B5 showed a Kd of 143 nM, a koff of 0.0633 s⁻¹ and a kon of 444000 M⁻¹ s⁻¹. With B6 the Kd was 54.9 nM, the koff was 0.00644 s⁻¹ and the kon was 117000 M⁻¹ s⁻¹. For B7, the Kd was 244 nM, the koff was 0.0666 s⁻¹ and the kon was 273000 M⁻¹ s⁻¹. B8 was tested, and the Kd was 18.8 nM, the koff was 0.00526 s⁻¹ and the kon was 281000 M⁻¹ s⁻¹. Binder B9 has a Kd of 131 nM, a koff of 0.023 s⁻¹ and a kon of 176000 M⁻¹ s⁻¹. B10 was tested, and the Kd was 9.05 nM, the koff was 0.00815 s⁻¹ and the kon was 901000 M⁻¹ s⁻¹. B11 was tested, and the Kd was 0.811 nM, the koff was 0.000286 s⁻¹ and the kon was 353000 M⁻¹ s⁻¹. B12 gave a Kd of 409 nM, a koff of 0.365 s⁻¹ and a kon of 893000 M⁻¹ s⁻¹. B13 gave a Kd of 191 nM, a koff of 0.0385 s⁻¹ and a kon of 202000 M⁻¹ s⁻¹.

The binders below were run against T2, human CD39 on cells (assay: flow cytometry, 100 nM IgG, hCD39-CHO cells; MFI ratio to parental CHO).
Experimental: (§1) 100 nanomolar IgGs (each antibody is indicated as a unique clone number in the FIG.) were incubated at […] 30 minutes on ice in phosphate buffered saline (PBS) with parental CHO cells or CHO cells engineered to express either human or cynomolgus macaque (Macaca fascicularis) CD39 (CHO CD39 cells). Cells were then washed with ice cold PBS and incubated with a fluorescently labeled goat-anti-human IgG for 20 minutes on ice. Cells were washed and resuspended in ice cold PBS prior to analysis by flow cytrometry.
With B1 the “Cell Binding (FOB)” value was 1450 FOB. B2 was tested, and the “Cell Binding (FOB)” value was 252 FOB. For B3, the “Cell Binding (FOB)” value was 799 FOB. With B4 the “Cell Binding (FOB)” value was 1400 FOB. B5 was tested, and the “Cell Binding (FOB)” value was 2030 FOB. B6 was tested, and the “Cell Binding (FOB)” value was 10 FOB. With B7 the “Cell Binding (FOB)” value was 451 FOB. In the case of B8, the “Cell Binding (FOB)” value is reported as 1080 FOB. B9 was tested, and the “Cell Binding (FOB)” value was 33 FOB. B10 was tested, and the “Cell Binding (FOB)” value was 1040 FOB. With B11 the “Cell Binding (FOB)” value was 1090 FOB. For B12, the “Cell Binding (FOB)” value was 390 FOB. B13 was tested, and the “Cell Binding (FOB)” value was 311 FOB.

Target: T3, cynomolgus macaque (Macaca …)
Experiment: flow cytometry, 100 nM IgG, cCD39-CHO cells; MFI ratio to parental CHO
Experimental: as §1
For B1, the “Cell Binding (FOB)” value was 1400 FOB. In the case of B2, the “Cell Binding (FOB)” value is reported as 257 FOB. B3 was tested, and the “Cell Binding (FOB)” value was 908 FOB. In the case of B4, the “Cell Binding (FOB)” value is reported as 1610 FOB. In the case of B5, the “Cell Binding (FOB)” value is reported as 2870 FOB. With B6 the “Cell Binding (FOB)” value was 14 FOB. B7 was tested, and the “Cell Binding (FOB)” value was 3350 FOB. With B8 the “Cell Binding (FOB)” value was 3050 FOB. B9 was tested, and the “Cell Binding (FOB)” value was 44 FOB. For B10, the “Cell Binding (FOB)” value was 4540 FOB. With B11 the “Cell Binding (FOB)” value was 4580 FOB. B12 was tested, and the “Cell Binding (FOB)” value was 339 FOB. B13 was tested, and the “Cell Binding (FOB)” value was 531 FOB.
